What was measured:
[1] = tested on: TM-V129A/I130A TβRI mutant (HA-tagged, in HA-caTβRI)
[2] = tested on: TβRI intracellular domain fragment (TβRI ICD), about 34 kDa
TβRI intracellular domain fragment (TβRI ICD), about 34 kDa, sequence (chain, as listed by the source): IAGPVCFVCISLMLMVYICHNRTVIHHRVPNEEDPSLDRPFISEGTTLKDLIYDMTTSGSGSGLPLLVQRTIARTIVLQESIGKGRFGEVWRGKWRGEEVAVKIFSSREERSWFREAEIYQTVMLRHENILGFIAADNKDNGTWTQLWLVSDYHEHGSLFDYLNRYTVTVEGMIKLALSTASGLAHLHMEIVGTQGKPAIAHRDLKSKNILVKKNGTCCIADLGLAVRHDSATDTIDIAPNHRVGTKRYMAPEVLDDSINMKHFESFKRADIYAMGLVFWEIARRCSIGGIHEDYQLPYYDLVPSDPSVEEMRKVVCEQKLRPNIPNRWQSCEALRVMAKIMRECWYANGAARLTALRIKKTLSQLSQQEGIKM

| Substance | production of TβRI ICD (immunoblot) [1] | acetylation of the TβRI ICD (immunoblot with anti-acetyl-lysine) [2] |
| --- | --- | --- |
| Presenilin 1 (PS1), endogenous | Production of TβRI ICD was observed only in the TGF-treated cells transfected with caTβRI construct | – |
| p300, endogenous | – | acetylation of the TβRI ICD was verified using an antibody specific for acetyl-lysine |
